According to the nanobody polyreactivity screen of Harvey et al. (2022):

Assay: yeast display, Sf9 membrane polyspecificity reagent, FACS + sequencing; frameworks hold sequencing errors
How it was run: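 After 36–48 hours of galactose induction, yeast (Saccharomyces cerevisiae BJ5465) displaying a synthetic nanobody library were stained at 4 °C for 1 hour with 10% biotinylated, detergent-solubilized Sf9 membrane reagent. Streptavidin microbeads enriched the stained cells before FACS sorting into low and high (top ~1%) gates on anti-HA and streptavidin fluorescence. Each clone's polyreactivity label reflects its gate of origin.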

| Sequence | polyreactivity (PSR sort gate) |
| --- | --- |
| QVQLVESGGGLVQAGGSLRLCCAASGSTFYFYTMGWYRQAPGKERELVAAIRDSGSSTDYADSVKGRFTISRDNAKNTVYLQMNSLKPEATAVYYCAAEYNFPEFPWGGEYDYWGQGTQVTVSS | low polyreactivity |
| QVQLVESGGGLVQAGGSLRLCCAAYGRTFRGNAMRLYTQAPGKERELVAVITSGDSTYYADSVKGRFTNSRDNAKNTVYLQMNSLKPEDTAVYYCAAYLWKSKRKLDYWGQGTQVTVTS | high polyreactivity |
| QVQLVESGGGLVQAGGSLRLGCAASGFTLWYYNIGWYRQAPGKERELVASISWSGGSTYYADSVKGRFTISRDNAKNTVYLQMNSLKPEDTALYYCNVQSYDRIYDYWGQGTQVTVSS | high polyreactivity |
| QVQLVESGGGLVQAGGSLRLICAASAFNFRYYVMGWYRQAPGKERELVAVISYSGGSTYYADSVKGRFTISRDNAKNTVYLQRNSMKPEDTAVYYCDARYYVATSSIYYYWGQGTQVTVSS | high polyreactivity |
| QVQLVESGGGLVQAGGSLRLICAASAFTIRRYAMGWYRQARGKERELVAAINWNGDTTYYADSVKGRFTISSDNAKNTVYLQMNSLKPEDTAVYYCATSDYYYDYWGQGTQVTVSS | high polyreactivity |
| QVQLVESGGGLVQAGGSLRLICAASGFIFASYAMGWYRQSPGKEREFVAAITRRGGTTYYADSVNGRFTISRDNAKNTVYLQMNSLKPEDTAVYYCATAHSRPGYVFDYWGQGTQVTVSS | high polyreactivity |
| QVQLVESGGGLVQAGGSLRLICAASGFIFAWYAMGWYRQAPGKERELVAAITSGGRTYYADSVKGRFTISRDNAKNTVYLQMNSMKPEDTAVYYCATDAVDSHRPYKYGPQSGSWGQGTQVTVSS | high polyreactivity |
| QVQLVESGGGLVQAGGSLRLICAASGFIFGAYTMGWYRQAPGKERELVADISRRGGTTYYADSVKGRFTISRDNAKNTVYLQMISLKPEDTAVYYCAKVANFWYITTLRGYYYWGQGTQVTVSS | high polyreactivity |
| QVQLVESGGGLVQAGGSLRLICAASGFIFRVYAMGWYRQAPGKERALVATITYDGGRTYYADSVKGRFTISRDNAKNTVYLQMNSLKPEDTAVFGYWGQGTQVTVSS | low polyreactivity |
| QVQLVESGGGLVQAGGSLRLICAASGFIFYGNAMGWYRQAPGKERELVAAISSSGGSTYYADSVKGRFTISRDNAKNTVYLQMNSLKPEDTAVYYCNKYYLVKGPYDWGQGTQVTVSS | high polyreactivity |
| QVQLVESGGGLVQAGGSLRLICAASGFIITGNAMGWYRQAPGKERELVAAITSGGNTYYADSVKGRFTISRDNAKNTVYLQMISMKPEDTAVYYCAKYGPHWRILMEYWGQGTQVTVSS | low polyreactivity |
| QVQLVESGGGLVQAGGSLRLICAASGFTFDENAMGWYRQAPGINYSGASTYYADSVKGRFTISRDNAKNTVYLQMISLKPEDTAVYYCAADYETGAVSILDDYWGQGTQVTVSS | low polyreactivity |
| QVQLVESGGGLVQAGGSLRLICAASGFTFGEYAMGWYRKAPGKERELVAGISWSGGGTYYADSVKGRFTISRDTAKNTVYLQMNCLKPEDTAVYYCAKAGYYFFQQWQVDYWGQGTQVTVSS | low polyreactivity |
| QVQLVESGGGLVQAGGSLRLICAASGFTFGGYAMGWYRPAPVKERELVAAINGNGGRTYSADSVKGRFTISRDKAKNTVYLQMISLKPEDTAVYYCYAAYRQHYRYYYWGQGTQVTVSS | high polyreactivity |
| QVQLVESGGGLVQAGGSLRLICAASGFTFPPYAMGGYRQAPGKERELVAAITSSGGRTYYAYSVKGRFTISRDNAKNTVYLQMNSLKPEDTAFYYCAAYGRFARMNYWGQGTQVTVSS | high polyreactivity |
| QVQLVESGGGLVQAGGSLRLICAASGFTFPVYARGWYRQAPGKERELVAAISSSGGTTYYADSVKGRFTISRDNAKNTVYLQMISLKPEDTAVYYCNAYYGSTAYGYDYWGQGTQVTVSS | low polyreactivity |

| Sequence | polyreactivity (PSR sort gate) |
| --- | --- |
| QVQLVESGGGLVQAGGSLRLICAASGFTFRYYAMGWYRQAPGTERELVAAISAGGGSTYYADSVKGRFTISRDNAKNTVYLQMNSLKPEETAVYYCAAAGARPGYDYWGQGTLVTVSS | high polyreactivity |
| QVQLVESGGGLVQAGGSLRLICAASGFTFSTNAMGWYRQAPGKERELVAAITKSGGRTYYADSVKGRFTISRDNAKNTVYLQMNSLTPEDTAVYYCAAEVDRKGFYWYYWGQGTQVTVSS | high polyreactivity |
| QVQLVESGGGLVQAGGSLRLICAASGFTFTGNAMGWYRQAPGKERELVAAITRGGSTKYADSVKGRITISRDNAMHTVYLQMNSLKPEDTAVYYCAAGVRYYRYYYWGQGTQVTVSS | high polyreactivity |
| QVQLVESGGGLVQAGGSLRLICAASGFTFYENAMGWYRQAPGKERELVATISYSGGTTYADSVKGRFTISRDNAKNTVFLQMISLKPEDTAVYYCAADKDGYTYEFDYWGQGTQVTVSS | low polyreactivity |
| QVQLVESGGGLVQAGGSLRLICAASGFTFYRYAMGWYRQAPGKERELVASITRSGGSTSYADSVKGRFTISRDNAKNSVYLQMNRLKPEDTAVFYCAAVTTQYLFSVPYYYWGQGTQVTVSS | high polyreactivity |
| QVQLVESGGGLVQAGGSLRLICAASGGTFQSNAMGWYRQAPGKERELVASITSRGSSTYYADSVKGRFTISRDNAKNTVYLLMNSLKPEDTAVYYCAKGRSWQIYYKGGIKGGYWGQGTQVTVSS | low polyreactivity |
| QVQLVESGGGLVQAGGSLRLICAASGGTFYAYAMGWYRQAPGKERELVAAITRSGGRTYYADSVKGRFTISRDNAKNTVSLQMNSLKPEDTAVYYCAADPHHYSGLDYWGQGTQVTVSS | low polyreactivity |
| QVQLVESGGGLVQAGGSLRLICAASGGTFYINTMGWYRQAPGKERELVATITIVVSTKYADSVKGRFTISRDNAKNTVYLQMNSLKPEDTAVYYCAKDDVYRDSYLVFDGEMDYWGQGTQVTVSS | low polyreactivity |
| QVQLVESGGGLVQAGGSLRLICAASGGTFYPYTMGGYRQAPGKERELVAAISRRSGRTYYADSVKGRFTISRDNAKNTVYLQMNSLKPEDTAVYYCNADGYTRAFDYWGQGTQVTVSS | high polyreactivity |
| QVQLVESGGGLVQAGGSLRLICAASGIIFATYAMGWYRQAPGKERELVAVISNDGSTHYADSVKGRFTISRDNAKNTVYLQMNSLKPEDTAVYYCAARYPYDWRHDYWGQGTQVTVSS | low polyreactivity |
| QVQLVESGGGLVQAGGSLRLICAASGIIFGYYAMGWYRQAPGKERELVAAITSGASTDYADSVKGRFTISRDNAKNTFYLQMNSLKPEDTAVFFCNADTSASTYTFPFDYCGQGTQVTVSS | low polyreactivity |
| QVQLVESGGGLVQAGGSLRLICAASGITFDDYDMGWYRQAPGKEREFVSAISFSGSSTYYADSVKGRFTISRDKAKNTVYLQMNSLKPEDTAVYYCNADYVYSGGRYFGKDYWFDYWGQGTQVTVSS | low polyreactivity |
| QVQLVESGGGLVQAGGSLRLICAASGITFDYYVMGWSRQAPGKERELVAVITWSGSTYYADSVKGRFTISRDNAKNTVYLQMNSLKPEDTAVYYCAADWVTYYDFEFYYWGQGTQVTVSS | high polyreactivity |
| QVQLVESGGGLVQAGGSLRLICAASGITFVYYAMGWYRQAPGKERELVAAISKNSGSTYYADSVKGRFTISRDNAKNTVYLQKNSLNPEDTAVYYCAAEEGYPWVRYNYWGQGTQVTVSS | high polyreactivity |
| QVQLVESGGGLVQAGGSLRLICAASGITFYVYTMGWYRQAPGKERELVAAINGSGGSTNYADSVKGRFTISRDNAKNTVYLQMNSLKPEDTAVYYCAADWSLRLYDYWGQGTQVTVSS | low polyreactivity |
| QVQLVESGGGLVQAGGSLRLICAASGITLDGNAMGWYRQAPGKERELVAAITSGGGTNYADSVKGRFTISRDNAKNTVYLQMNSLKPEDTAVYYCAAEGYVGYYDYDYWGQGTQVTVSS | low polyreactivity |
